The values below come from paper PMC6702328 (2019).

Experiment in all cases: MST
For assay [1], the target named is wild type human SOD1 (Cu/Zn superoxide dismutase) (human, UniProt P00441 1-154, fluorescently labeled (NanoTemper BLUE protein-labeling kit) where it was the labelled partner in MST).
In assay [2] the target is human mutant SOD1^G93A (human, fluorescently labeled (NanoTemper BLUE protein-labeling kit) where it was the labelled partner in MST).
Target sequence (chain, as listed by the source G93A): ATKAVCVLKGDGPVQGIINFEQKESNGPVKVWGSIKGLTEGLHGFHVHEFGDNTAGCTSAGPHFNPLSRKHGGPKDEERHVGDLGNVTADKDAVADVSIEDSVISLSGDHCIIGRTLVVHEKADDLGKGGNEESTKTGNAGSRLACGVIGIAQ
The target in assay [3] is human mutant SOD1^G85R (human, fluorescently labeled (NanoTemper BLUE protein-labeling kit) where it was the labelled partner in MST).
Target sequence (chain, as listed by the source G85R): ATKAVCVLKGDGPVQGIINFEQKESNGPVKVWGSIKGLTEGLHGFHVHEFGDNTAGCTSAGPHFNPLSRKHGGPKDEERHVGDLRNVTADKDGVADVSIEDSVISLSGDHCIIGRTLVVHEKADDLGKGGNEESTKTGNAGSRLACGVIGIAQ

Chain of wild type human SOD1 (Cu/Zn superoxide dismutase) (P00441 whole entry): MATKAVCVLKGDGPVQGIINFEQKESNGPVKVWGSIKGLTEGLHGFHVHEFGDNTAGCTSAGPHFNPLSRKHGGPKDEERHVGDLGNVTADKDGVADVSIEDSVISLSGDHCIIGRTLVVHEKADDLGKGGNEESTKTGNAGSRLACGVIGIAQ

B1: 1-26 N-Terminal peptide of VDAC1 (peptide)
peptide: MAVPPTYADLGKSARDVFTKGYGFGL
Consider B1, for which the EC50 in assay [1] is above 200 µM; in assay [2], 3.75 µM; in assay [3], 3.75 µM.
